Experimental data: paper PMC3229523, “Identification of Lactoferricin B Intracellular Targets Using an Escherichia coli Proteome Chip” (PLoS ONE, 2011)
Ends that are not written are not given here. * marks the point of attachment. Biotin = O=C1N[C@H]2[C@H](CS[C@H]2CCCCC(=O)*)N1

Assays:
Assay in all cases: peptide or protein array; E. coli proteome chip: purified His-tagged proteins printed in duplicate on Fullmoon slides, blocked with 1% BSA; 10 nM N-terminal biotinylated LfcinB with 1% BSA, room temperature, 1 h; detected with DyLight 649-labeled streptavidin, ratio to DyLight 549-labeled anti-His antibody; ProCAT normalisation, local cut-off; triplicate chips
Conditions in all cases: both partners purified
[1] = target: T1, NrdB (E. coli K-12, UniProt P69924 1-376)
T1 construct: NrdB, E. coli K-12
T1 sequence (looked up): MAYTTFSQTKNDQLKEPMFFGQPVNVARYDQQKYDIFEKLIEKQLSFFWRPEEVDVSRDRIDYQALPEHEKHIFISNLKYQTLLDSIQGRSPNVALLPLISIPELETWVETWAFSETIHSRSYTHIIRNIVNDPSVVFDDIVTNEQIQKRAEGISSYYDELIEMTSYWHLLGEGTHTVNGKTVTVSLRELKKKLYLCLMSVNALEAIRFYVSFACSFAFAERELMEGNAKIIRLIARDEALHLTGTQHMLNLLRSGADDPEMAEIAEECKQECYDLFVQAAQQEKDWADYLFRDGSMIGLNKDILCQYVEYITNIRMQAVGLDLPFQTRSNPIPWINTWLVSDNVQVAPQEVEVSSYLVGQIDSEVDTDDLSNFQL

[2] = target: T2, YdaU (E. coli K-12, UniProt P76065 1-285)
T2 construct: YdaU, E. coli K-12
T2 sequence (looked up): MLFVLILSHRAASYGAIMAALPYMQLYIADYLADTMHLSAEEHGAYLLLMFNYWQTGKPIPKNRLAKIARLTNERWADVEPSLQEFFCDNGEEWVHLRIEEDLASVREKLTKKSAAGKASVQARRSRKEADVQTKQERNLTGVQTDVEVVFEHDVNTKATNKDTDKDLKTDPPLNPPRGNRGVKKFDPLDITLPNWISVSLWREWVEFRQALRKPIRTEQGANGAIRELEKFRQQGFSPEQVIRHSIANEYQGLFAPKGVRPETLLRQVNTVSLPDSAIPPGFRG

[3] = target: T3, FimZ (E. coli K-12, UniProt P0AEL8 1-210)
T3 construct: FimZ, E. coli K-12
T3 sequence (looked up): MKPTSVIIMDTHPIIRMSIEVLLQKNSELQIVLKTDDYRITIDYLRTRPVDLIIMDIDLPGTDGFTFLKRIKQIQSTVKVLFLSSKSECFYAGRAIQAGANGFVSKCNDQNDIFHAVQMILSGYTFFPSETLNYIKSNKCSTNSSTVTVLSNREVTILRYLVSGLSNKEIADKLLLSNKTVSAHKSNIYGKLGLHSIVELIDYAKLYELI

[4] = target: T4, YfbO (E. coli K-12, UniProt P76485 1-140)
T4 construct: YfbO, E. coli K-12
T4 sequence (looked up): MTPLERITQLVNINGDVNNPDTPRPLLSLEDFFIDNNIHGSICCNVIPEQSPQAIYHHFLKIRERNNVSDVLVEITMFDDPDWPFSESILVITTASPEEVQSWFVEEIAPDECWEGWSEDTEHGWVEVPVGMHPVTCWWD

[5] = target: T5, CaiA (E. coli K-12, UniProt P60584 1-380)
T5 construct: CaiA, E. coli K-12
T5 sequence (looked up): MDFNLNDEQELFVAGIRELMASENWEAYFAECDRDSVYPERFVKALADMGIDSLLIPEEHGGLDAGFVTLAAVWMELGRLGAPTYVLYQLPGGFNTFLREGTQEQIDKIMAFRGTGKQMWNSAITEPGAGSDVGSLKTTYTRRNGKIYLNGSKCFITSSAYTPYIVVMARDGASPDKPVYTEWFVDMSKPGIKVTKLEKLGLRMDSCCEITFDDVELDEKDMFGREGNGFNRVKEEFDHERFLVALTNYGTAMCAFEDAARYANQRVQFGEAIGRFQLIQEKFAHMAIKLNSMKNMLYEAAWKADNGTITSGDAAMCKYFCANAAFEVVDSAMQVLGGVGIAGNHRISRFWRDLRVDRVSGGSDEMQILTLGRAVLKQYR

Measured: binding result

B1: N-terminal biotinylated Lactoferricin B (peptide, UniProt P24627 36-60, looked up)
peptide: Biotin-FKCRRWQWRMKKLGAPSITCVRRAF
modifications: ends and bridges not checked
notes: lactoferricin B (LfcinB), cationic antimicrobial peptide of 25 amino acids; also called biotinylated LfcinB; biotin-labeled LfcinB; source: bought: Kelowna Inc
binds: all assays above
